Test results from patent WO2015031626A1 (dated 2015).

Tests used:
[1] = target: T1, recombinant human scMet antigen, cMet (25-932)-HIEGRMD-6His (human, UniProt P08581 25-932); assay: … scMet B sandwich immunoassay, 224D10 F(ab')2 as acridinium conjugate
T1 construct: this entry is used for those rows too; also called soluble cMet; scMet B Sample

[2] = target: T1, recombinant human scMet antigen, cMet …; assay: … chemiluminescent microparticle sandwich immunoassay on recombinant scMet
[3] = target: T2, free cMet (SEQ ID NO: 33) bound to Alexa-488 dye (human, UniProt P08581 25-932, Alexa-488 dye (site not stated)); assay: FRET binding titration in solution
T2 construct: also called cMet-A488
T2 sequence (P08581 other isoform, or with tags, fused parts or gaps limits assumed): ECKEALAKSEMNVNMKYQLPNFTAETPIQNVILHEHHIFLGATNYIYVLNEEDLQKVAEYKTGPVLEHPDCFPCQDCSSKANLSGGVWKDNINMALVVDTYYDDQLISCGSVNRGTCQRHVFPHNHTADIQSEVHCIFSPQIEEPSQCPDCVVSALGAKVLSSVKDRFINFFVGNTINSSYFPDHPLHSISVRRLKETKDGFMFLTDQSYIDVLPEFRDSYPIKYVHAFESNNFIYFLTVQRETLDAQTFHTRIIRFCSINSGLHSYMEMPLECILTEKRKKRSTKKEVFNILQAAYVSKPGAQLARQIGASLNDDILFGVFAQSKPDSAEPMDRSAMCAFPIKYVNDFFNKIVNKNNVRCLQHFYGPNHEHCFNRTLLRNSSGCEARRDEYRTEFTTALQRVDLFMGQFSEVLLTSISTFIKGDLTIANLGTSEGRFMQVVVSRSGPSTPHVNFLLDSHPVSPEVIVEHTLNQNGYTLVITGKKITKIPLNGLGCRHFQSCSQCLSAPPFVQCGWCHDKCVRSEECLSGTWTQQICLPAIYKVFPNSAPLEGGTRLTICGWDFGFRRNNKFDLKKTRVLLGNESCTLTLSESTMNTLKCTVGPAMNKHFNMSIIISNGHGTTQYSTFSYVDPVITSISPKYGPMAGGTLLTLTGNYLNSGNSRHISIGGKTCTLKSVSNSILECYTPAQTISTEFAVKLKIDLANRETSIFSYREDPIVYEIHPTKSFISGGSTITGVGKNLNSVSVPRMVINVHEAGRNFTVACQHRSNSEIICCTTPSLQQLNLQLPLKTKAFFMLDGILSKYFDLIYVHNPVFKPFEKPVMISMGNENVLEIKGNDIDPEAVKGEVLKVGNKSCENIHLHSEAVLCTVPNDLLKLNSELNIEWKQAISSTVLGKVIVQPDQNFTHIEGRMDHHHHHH

T1 sequence (P08581 other isoform, or with tags, fused parts or gaps limits assumed): as above

Row | Binder | binding result [1] | binding result [2] | binding result [3]
1 | anti-cMet 224D10 F(ab')2 fragment antibody (antibody, V domains shown, acridinium conjugate (site not stated), also called 224D10 F(ab') 2 fragment conjugate) VH: DLQLQESGPGLVKPSQSLSLTCSVTGYSITSAYFWSWIRQFPGNKLEWMGFINYDGTNNYNPSLKNRISITRDTSKNQFFLRLNSVTTDDTATYYCTRDRTFAYWGQGTLVTVSA VL: DIVLTQSPATLSVTPGDRVSLSCRASQRIYNYLHWYQQKSHESPRLLIKYASQSISGIPSRFSGSGSGTDFILTINSVETEDFGMYFCQQSNSWPLTFGAGTKLELRR | binds | – | –
2 | anti-cMet 11E1 monoclonal antibody (hybridoma CNCM I-3724) (antibody, V domains shown, summary and claims call them variable heavy and variable light domains; Hybridoma monoclonal, coated on magnetic microparticles (capture) or labelled with acridinium (conjugate); also called m11E1; mAb 11E1) VH: QVQLQQSGAELAKPGASVKMSCKASGYTFTSYWMNWVKQRPGQGLEWIGYINPTTGSTDYNQKLKDKATLTADKSSNTAYMQLSSLTSEDSAVYYCAIGGYGSWFAYWGQGTLVTVSA VL: QIVLTQSPAIMSASPGEKVTLTCSASSSVSSTYLYWYQQKPGSSPKLWIYTTSILASGVPARFSGSGSGTSYSLTISSMETEDAASYFCHQWSSYPFTFGSGTKLDIK | – | binds | binds
